This is an account of results in publication PMC5552922.

For series [1], the target named is T1, DdrOC (DdrO) (Deinococcus deserti) (UniProt C1CYP4).
T1 sequence: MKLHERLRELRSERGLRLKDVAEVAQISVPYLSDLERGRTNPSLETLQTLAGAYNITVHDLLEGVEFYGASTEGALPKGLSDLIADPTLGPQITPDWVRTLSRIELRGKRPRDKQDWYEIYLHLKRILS
The series can be described thus: EMSA. The note with it: EMSA: 10 mM Tris-HCl pH 7.4, 60 mM NaCl, 1 mM DTT, 5% glycerol, 200 ng DNA in 20 ul, 30 min room temperature; 5% PAGE in TAE at 4 C, ethidium bromide. Background: In EMSA bound probe runs differently from free probe, usually more slowly.

In series [2] the target is T2, DdrOC cleaved by IrrE (Deinococcus deserti) (UniProt C1CYP4).
T2 sequence: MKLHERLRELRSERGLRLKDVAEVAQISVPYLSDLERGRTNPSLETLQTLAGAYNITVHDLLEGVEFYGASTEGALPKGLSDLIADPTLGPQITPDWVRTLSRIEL
The series can be described thus: EMSA. The note with it: EMSA: 10 mM Tris-HCl pH 7.4, 60 mM NaCl, 1 mM DTT, 5% glycerol, 200 ng DNA in 20 ul, 30 min room temperature; 5% PAGE in TAE at 4 C, ethidium bromide.

As for “TATAGGTACCGGTACTCCTTCCTGTCCGACAGCAGACAGCGAGGCAAAGCATGAATAGTCGGTCTTAAGGGGGTAAAAGCCTTCTTGATTACGATCATAGCAGATCGTCTCGTGGTGGGCAAGAAGAACTCCTCTCTATTCTGTATTGACCGTACCGGGAAGCGGTGTTACACTCCAACCAAGGGTGCCCGATTCTGCCTACAGGCAAACGCTCCCCCAGGCGGCCCGCCCGGTCAGCGCACAGTCCCGGTCGCTCAAAGCTGCAGTATC (double strand) [ddrOC-ddrQ intergenic region]”, the binding entry in series [1] was “binds”; in series [2], “no binding”.
